Assay results as given in US8926966B1 (Regents of the University of California, priority 1990, dated 2015).
Like-named read-outs stand apart in the source and are kept apart here.

Assays:
[1] = tested on: islet infiltrating T lymphocytes (IITLs); test: ^3H-thymidine incorporation, islet infiltrating T lymphocytes; assay type: cell-based
splenic lymphocytes = test: ^3H-thymidine incorporation, splenic lymphocytes; assay type: cell-based
[2] = tested on: IDDM autoantibodies in sera of human patients; test: Autoantibody reactivity with ^35S labeled GAD65 segments (immunoprecipitation, SDS-PAGE); assay type: binding; conditions: IDDM patient sera of Table 10
Text: Portions of human GAD65 cDNA were amplified by the polymerase chain reaction (PCR; Saiki, et al., Science, 239:487, 1988) to produce DNA segments encoding three polypeptide segments: amino acid residues 1-224 (segment A); 224-398 (segment B); and 398-585 (segment C). Each construct also contained a T7 promoter, a consensus sequence for the initiation of translation and an initiating methionine codon (Korak, M., J. Cell Biol., 108:229, 1989). Each PCR product was then trascribed in vitro with T7 RNA polymerase and translated in vitro in a rabbit reticulocyte cell-free system in the presence of ^35S-methionine, using conditions recommended by the supplier (Amersham Corp., Arlington Heights, Ill.). Each test serum (30 μl) was incubated with the resulting ^35S labeled-polypeptides. The bound peptides were isolated with PAS and analyzed by SDS-PAGE in 12% polyaacrylamide and autoradiography.

NOD mice [3] = tested on: NOD mice
Experimental: 1. […] At 12 weeks of age, mice were examined for insulitis and autoantigen reactive T-cells. […] Pancreatic tissue sections were stained by immunoperoxidase techniques for insulin and were counterstained with hematoxylin. Insulitis was scored in a blinded manner by examining 54 to 87 islets on 5 interrupted tissue sections from each pancreas. Proliferative splenic T-cell responses induced by various antigens were performed as described above in Example 4. Data in Table 8 are expressed as the average [^3H]-thymidine label (cpm) incorporated in triplicate cultures.

[4] = tested on: spleen cells of NOD, BALB/c and (NOD/BALB/c) F1 mice; conditions: <4 or >16 week old NOD or control BALB/c or (NOD/BALB/c) F1 spleen cells
Experimental: Incorporation of label was measured by liquid scintillation counting.

NOD mice [5] = test: GAD immunization of 8 week old NOD mice, IDDM onset; assay type: in vivo, mouse
Text: Breeder mice were purchased from Taconic Farms and housed under specific pathogen-free conditions. Only female NOD mice were used in this study. […] Insulitis is generally observed beginning at 4 weeks of age. […] The incidence of IDDM in female mice is 70-90% by one year of age.
Urine glucose levels were monitored twice weekly. After observing above normal glucose in urea, blood glucose levels were monitored twice weekly.

NOD mice [6] = test: Insulitis score after tolerization of NOD mice; assay type: in vivo, mouse; conditions: examined at 12 weeks
[7] = tested on: autoantibodies to GAD in patient sera; test: Immunoprecipitation of ^35S-GAD65 / ^35S-GAD67 by sera drawn prior to IDDM onset; assay type: binding, human; set-up: key to band intensity of immunoprecipitated ^35S-GAD: 1 = lowest; 2 = medium; 3 = highest band intensities
Experimental: (§1) Islet cells were extracted as previously described by Atkinson, et al. (Lancet, 335:1357-1360, 1990) with the following modifications. […] The protein A Sepharose CL-4B was then boiled in Laemmli sample buffer (Laemmli, Nature, 227:680-685, 1970), and the samples were subjected to SDS-PAGE and fluororadiography (Kodak, X-omat AR5) using Enhance (New England Nuclear). Alternatively, the autoradiographs were analyzed by a BETAGEN (Boston, Mass.) analyzer. Both 64KA positive and negative sera were used in each assay, to serve as interassay controls. All fluororadiographs were analyzed and rated as positive or negative after comparison with the known interassay controls. […] A similar rating procedure was employed for the intensity of bands corresponding to immunoprecipitated ^35S-GAD65 and ^35S-GAD67.
Rat GAD65 and GAD67 cDNAs were subcloned into a bacterial expression system as previously described. Labeling of ^35S-GADs was completed by pulsing IPTG induced bacterium (growing in Minimal Media) for 15 minutes with TRAN ^35S-label (ICN). Cultures were then spun down and resuspended and sonicated in 1 ml of homogenizing buffer (1 mM phenylmethylsulfonyl fluoride (PMSF), 1 mM 2-aminoethylisothiouronium Bromide (AET) and 60 mM potassium phosphate, pH 7.1). After sonication, cell debris was removed by centrifugation and protein concentration was measured (Bradford, Anal. Biochem., 72:248, […]) in the supernatant (supernatant was stored in aliquots at −70° C.).

[8] = tested on: autoantibodies to the 64 kD autoantigen; test: Prior absorption of IDDM serum, recognition of 64 kD pancreatic polypeptide; assay type: binding; conditions: human pancreatic islet cell lysate
Experimental: as §1
Prior absorption of these sera with GAD-6 monoclonal, which recognized GAD65 but not GAD67, or with bacterially produced GAD65, abolished the ability of the sera to recognize the 64 kD pancreatic polypeptide. […] In order to investigate the predictive value of GAD65, sera drawn from patients prior to onset of clinical manifestation of IDDM were tested for autoantibodies to GAD65.

ARFKMFPEVKEKGMAA [GAD65 (SEQ ID NO. 5)]
^3H-THYMIDINE INCORPORATION (cpm) BY LYMPHOID CELL POPULATION IITLs ([1]; 3 × 10^4 cells/well, 5 days culture with irradiated spleen cells): 9,500 cpm
IITL proliferative response relative to culture media or polio polypeptide ([1]; IITL population): 9 fold
^3H-THYMIDINE INCORPORATION (cpm) BY LYMPHOID CELL POPULATION SPLEEN (splenic lymphocytes; 1 × 10^5 cells/well, 5 days culture): 23,300 cpm

MKSMCPQAQLKVKYL [Poliovirus (SEQ ID NO. 4), reference compound]
^3H-THYMIDINE INCORPORATION (cpm) BY LYMPHOID CELL POPULATION IITLs [1]: 900 cpm
^3H-THYMIDINE INCORPORATION (cpm) BY LYMPHOID CELL […] (splenic lymphocytes): 22,500 cpm

Segment B: human GAD65 amino acid residues 224-398, in vitro translated, ^35S labeled
patients with antibodies reactive with the segment [2]: 41%

glutamic acid decarboxylase [GAD]
glucose levels of treated mice (NOD mice [3]; all treated mice, n=17, presently 37 weeks old): normal glucose levels
insulitis at 30 weeks of age (NOD mice [3]; five treated mice sacrificed at 30 weeks, one had very limited peri-insulitis): four mice were completely free of insulitis
T cell proliferation [4]: did not induce T cell proliferation
significance of delay of diabetes versus β-gal immunized mice (NOD mice [5]; 25 ug i.p. in IFA at 8 weeks, again every 6 weeks): < 0.02
onset of IDDM compared to control β-gal immunized mice (NOD mice [5]; FIG. 11): clear delay in the onset of IDDM
immunized mice with no signs of hyperglycemia until 36 weeks in age (NOD mice [5]; of 10 mice, 25 ug i.p. in IFA at 8 weeks, again every 6 weeks): 8
insulitis score of the completely tolerized mice (NOD mice [6]; NOD mice, 50 μg i.v. at 3 weeks): 0.0
Insultis Score (NOD mice [6]; Table 8A: female NOD mice, i.v. at 3 weeks of age, 50 μg (hsp-p 0.1 μg) in PBS, scale 0-4, mean ± SE): 0.1 ± 0.1

B1: GAD65: rat GAD65 expressed in bacteria, ^35S-labeled, in bacterial lysate (protein, UniProt Q05683 1-585, looked up)
Glutamate decarboxylase 2: MASPGSGFWSFGSEDGSGDPENPGTARAWCQVAQKFTGGIGNKLCALLYGDSEKPAESGGSVTSRAATRKVACTCDQKPCSCPKGDVNYALLHATDLLPACEGERPTLAFLQDVMNILLQYVVKSFDRSTKVIDFHYPNELLQEYNWELADQPQNLEEILTHCQTTLKYAIKTGHPRYFNQLSTGLDMVGLAADWLTSTANTNMFTYEIAPVFVLLEYVTLKKMREIIGWPGGSGDGIFSPGGAISNMYAMLIARYKMFPEVKEKGMAAVPRLIAFTSEHSHFSLKKGAAALGIGTDSVILIKCDERGKMIPSDLERRILEVKQKGFVPFLVSATAGTTVYGAFDPLLAVADICKKYKIWMHVDAAWGGGLLMSRKHKWKLNGVERANSVTWNPHKMMGVPLQCSALLVREEGLMQSCNQMHASYLFQQDKHYDLSYDTGDKALQCGRHVDVFKLWLMWRAKGTTGFEAHIDKCLELAEYLYNIIKNREGYEMVFDGKPQHTNVCFWFVPPSLRVLEDNEERMSRLSKVAPVIKARMMEYGTTMVSYQPLGDKVNFFRMVISNPAATHQDIDFLIEEIERLGQDL
modifications: 35S-labeled
notes: rat GAD65 expressed in bacteria, ^35S-labeled, in bacterial lysate
specimens immunoreactive ([7]; 9 out of 12 sera drawn prior to IDDM onset): 75%
band intensity of immunoprecipitated ^35S-GAD ([7]; serum of patient eight, drawn 8 months before IDDM onset): 0
band intensity of immunoprecipitated ^35S-GAD ([7]; serum of patient eleven, drawn 10 months before IDDM onset): 1
band intensity of immunoprecipitated ^35S-GAD ([7]; serum of patient five, drawn 34 months before IDDM onset): 1
band intensity of immunoprecipitated ^35S-GAD ([7]; serum of patient nine, drawn 42 months before IDDM onset): 1
band intensity of immunoprecipitated ^35S-GAD ([7]; serum of patient one, drawn 9 months before IDDM onset): 1
band intensity of immunoprecipitated ^35S-GAD ([7]; serum of patient seven, drawn 3 months before IDDM onset): 0
band intensity of immunoprecipitated ^35S-GAD ([7]; serum of patient six, drawn 11 months before IDDM onset): 0
band intensity of immunoprecipitated ^35S-GAD ([7]; serum of patient ten, drawn 25 months before IDDM onset): 1
band intensity of immunoprecipitated ^35S-GAD ([7]; serum of patient three, drawn 14 months before IDDM onset): 2
band intensity of immunoprecipitated ^35S-GAD ([7]; serum of patient twelve, drawn 4 months before IDDM onset): 1
band intensity of immunoprecipitated ^35S-GAD ([7]; serum of patient two, drawn 6 months before IDDM onset): 3
band intensity of immunoprecipitated ^35S-GAD ([7]; serum of patient, drawn 66 months before IDDM onset): 1
ability of patient four sera to recognize the 64 kD pancreatic polypeptide after prior absorption [8]: abolished

B2: Segment C: human GAD65 amino acid residues 398-585, in vitro translated, ^35S labeled (protein)
chain: MMGVPLQCSALLVREEGLMQNCNQMHASYLFQQDKHYDLSYDTGDKALQCGRHVDVFKLWLMWRAKGTTGFEAHVDKCLELAEYLYNIIKNREGYEMVFDGKPQHTNVCFWYIPPSLRTLEDNEERMSRLSKVAPVIKARMMEYGTTMVSYQPLGDKVNFFRMVISNPAATHQDIDFLIEEIERLGQDL
patients with antibodies reactive with the segment [2]: 27%

B3: Segment A: human GAD65 amino acid residues 1-224, in vitro translated, ^35S labeled (protein)
chain: MASPGSGFWSFGSEDGSGDSENPGTARAWCQVAQKFTGGIGNKLCALLYGDAEKPAESGGSQPPRAAARKAACACDQKPCSCSKVDVNYAFLHATDLLPACDGERPTLAFLQDVMNILLQYVVKSFDRSTKVIDFHYPNELLQEYNWELADQPQNLEEILMHCQTTLKYAIKTGHPRYFNQLSTGLDMVGLAADWLTSTANTNMFTYEIAPVFVLLEYVTLKKM
patients with antibodies reactive with the segment [2]: none
